From the MegaScale stability set (Tsuboyama et al. 2023)

B1: HHH_rd1_0493 (parent)
chain: RDEDEKEKIKEALKRGNEDKAKEIAKRANVSPEEYERLRKEAE

Variants of: B1
Assay: folding stability dG (cDNA display proteolysis); higher = more stable
Conditions: PBS, room temperature

Folding stability dG [kcal/mol], by site and new letter:
E33: A 2.69, M 2.33, I 2.19, C 2.29, H 2.03, K 2.04, D 2.64, F 1.96, L 2.27, G 2.25
I24: T 1.32, V 1.87, S 0.921, Y 1.73, R 1.04, W 1.34
K26: I 2.91, R 3.1, Q 2.99, M 2.91, F 2.47, N 2.64, Y 2.35, P 0.553, E 2.83, S 2.75, D 2.71, A 3.03, W 2.01, G 2.31, H 2.74, L 3.05, T 2.79, V 2.73
S31: T 3.03, I 1.44, K 2.07, M 2.11, L 2.21, W 1.27, D 2.6, F 1.4, H 1.95, G 2.94, A 2.45, R 1.87, E 2.17, Y 1.3, Q 2.19, C 1.74, V 1.66, P 2.65, N 2.39
A25: E 0.618, I 0.742, R 1.16, W -0.051, T 1.01, D 0.442, C 1.54, M 1.88, H 0.547, N 0.52, F 0.695, K 0.845, Y 0.541, V 1.37, P 0.533, L 0.818, S 1.74, Q 2.15, G 1.3
P32: V 2.74, W 2.92, G 2.37, Q 2.8, A 3.03, F 2.76, D 3.02, C 2.07, E 2.85, K 2.65, T 2.61, L 2.83, R 2.73, I 2.77, Y 2.7, M 2.79, N 2.63, H 2.7, S 2.67
N29: Y 1.9, R 2.55, C 1.83, E 2.29, P 0.97, K 2.74, H 2.67, W 1.51, D 2.39, A 2.34, V 1.41, Q 2.62, G 3.3, I 1.23, S 2.42, L 2.22, T 1.58, F 2.29, M 2.51
A28: Y 3.02, L 3.25, T 2.25, Q 2.23, E 1.96, V 2.32, S 2.51, I 2.98, N 2.9, G 2.32, W 2.25, H 2.83, K 1.82, M 2.64, P 0.576, D 1.36, F 2.91, C 2.78, R 1.84
V30: G 0.389, A 0.849, H 0.486, D 0.32, Y 1.84, R 0.486, T 1.84, K 0.917, F 2.3, P 0.301, Q 0.766, M 2.89, I 3.41, S 0.63, L 3.09, N 0.389, E 0.435, W 1.73, C 1.69
R27: I 2.65, K 2.93, G 2.36, S 2.68, N 2.83, P 0.689, C 2, A 3.04, V 2.42, L 2.82, E 2.71, H 2.61, Q 2.83, T 2.51, W 2, Y 2.21, M 2.61, D 2.26, F 2.01
